The test concerns the target VHL (Homo sapiens, UniProt P40337). Put plainly: SPR. In general terms: In SPR one partner is held on a chip, and binding of the other changes the refractive index at the surface.

Our source for the Kd values is PMC12749748 (2025).

Broadly, the Kd is the free concentration of one partner at which half of the binding sites on the other are occupied at equilibrium, for simple one-to-one binding. A lower Kd goes with tighter binding.

Where only a bound is given, the exact number is not on record here.

VHL, sequence (P40337 whole entry): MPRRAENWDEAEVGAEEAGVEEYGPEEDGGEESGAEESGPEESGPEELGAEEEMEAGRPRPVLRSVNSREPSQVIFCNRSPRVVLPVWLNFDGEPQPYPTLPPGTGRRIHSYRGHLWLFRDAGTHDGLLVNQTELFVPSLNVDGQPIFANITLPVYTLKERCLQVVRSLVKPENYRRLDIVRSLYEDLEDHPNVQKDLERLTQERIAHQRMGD

B1: IRE1 (protein)
chain: IFGSTSTVTLPETLLFVSTLDGSLHAVSKRTGSIKWTLKEDPVLQVPTHVEEPAFLPDPNDGSLYTLGSKNNEGLTKLPFTIPELVQASPCRSSDGILYMGKKQDIWYVIDLLTGEKQQTLSSAFADSLCPSTSLLYLGRTEYTITMYDTKTRELRWNATYFDYAASLPEDDVDYKMSHFVSNGDGLVVTVDSESGDVLWIQNYASPVVAFYVWQREGLRKVMHINVAVETLRYLTFMSGEVGRITKWKYPFPKETEAKSKLTPTLYVGKYSTSLYASPSMVHEGVAVVPRGSTLPLLEGPQTDGVTIGDKGECVITPSTDVKFDPGLKSKNKLNYLRNYWLLIGHHETPLSASTKMLERFPNNLPKHRENVIPADSEKKSFEEVINLVDQTSENAPTTVSRDVEEKPAHAPARPEAPVDSMLKDMATIILSTFLLIGWVAFIITYPLSMHQQQQLQHQQFQKELEKIQLLQQQQQQLPFHPPGDTAQDGELLDTSGPYSESSGTSSPSTSPRASNHSLCSGSSASKAGSSPSLEQDDGDEETSVVIVGKISFCPKDVLGHGAEGTIVYRGMFDNRDVAVKRILPECFSFADREVQLLRESDEHPNVIRYFCTEKDRQFQYIAIELCAATLQEYVEQKDFAHLGLEPITLLQQTTSGLAHLHSLNIVHRDLKPHNILISMPNAHGKIKAMISDFGLCKKLAVGRHSFSRRSGVPGTEGWIAPEMLSEDCKENPTYTVDIFSAGCVFYYVISEGSHPFGKSLQRQANILLGACSLDCLHPEKHEDVIARELIEKMIAMDPQKRPSAKHVLKHPFFWSLEKQLQFFQDVSDRIEKESLDGPIVKQLERGGRAVVKMDWRENITVPLQTDLRKFRTYKGGSVRDLLRAMRNKKHHYRELPAEVRETLGSLPDDFVCYFTSRFPHLLAHTYRAMELCSHERLFQPYYFHEPPEPQPPVTPDAL
In turn, B1 had a Kd above 10 µM.
